Data published in publication PMC11827629.

Assays:
[1] = molecular target: T1, thrombin, N-terminally 2PCA-labeled (Cy5, biotin) (UniProt P00734;P00734 328-363;364-622); assay: single-molecule FRET (koff/kon); koff 0.1 +/- 0.1 s-1; kon 0.2 +/- 0.1 e8 M-1 s-1; main text gives error 0.7; smFRET: 1x PBS with 2.5 mM PCA, 0.155 U/ul PCD, 1 mM Trolox, 5 nM Cy3-aptamer, 23 +/- 1 C, pH not stated; QCM: PBS, flow 45 +/- 3 ul/min, thrombin 0.06-16.5 nM
human alpha-thrombin [2] = molecular target: T2, human alpha-thrombin (Homo sapiens, UniProt P00734;P00734 328-363;364-622); assay: QCM; about twice the sensitivity of RE31; response at 300 pM; release 3.1 +/- 1.05% per 5 min at 16.5 nM; smFRET: 1x PBS with 2.5 mM PCA, 0.155 U/ul PCD, 1 mM Trolox, 5 nM Cy3-aptamer, 23 +/- 1 C, pH not stated; QCM: PBS, flow 45 +/- 3 ul/min, thrombin 0.06-16.5 nM
[3] = molecular target: T1, thrombin, N-terminally 2PCA-labeled …; assay: single-molecule FRET (koff/kon); koff 0.3 +/- 0.1 s-1; kon 1.1 +/- 0.1 e8 M-1 s-1; smFRET: 1x PBS with 2.5 mM PCA, 0.155 U/ul PCD, 1 mM Trolox, 5 nM Cy3-aptamer, 23 +/- 1 C, pH not stated; QCM: PBS, flow 45 +/- 3 ul/min, thrombin 0.06-16.5 nM
human alpha-thrombin [4] = molecular target: T2, human alpha-thrombin; assay: QCM; linear 1.65-16.5 nM; no significant change below; release 6.3 +/- 0.6% per 5 min at 16.5 nM; smFRET: 1x PBS with 2.5 mM PCA, 0.155 U/ul PCD, 1 mM Trolox, 5 nM Cy3-aptamer, 23 +/- 1 C, pH not stated; QCM: PBS, flow 45 +/- 3 ul/min, thrombin 0.06-16.5 nM
[5] = molecular target: T1, thrombin, N-terminally 2PCA-labeled …; assay: single-molecule FRET (koff/kon); koff 0.7 +/- 0.1 s-1; kon 0.7 +/- 0.1 e8 M-1 s-1; main text gives error 0.8; smFRET: 1x PBS with 2.5 mM PCA, 0.155 U/ul PCD, 1 mM Trolox, 5 nM Cy3-aptamer, 23 +/- 1 C, pH not stated; QCM: PBS, flow 45 +/- 3 ul/min, thrombin 0.06-16.5 nM

B1: NU172 single molecule exp. (structured_DNA)
DNA: TTTTTTTCGCCTAGGTTGGGTAGGGTGGTGGCG
Question: With B1 as the binder, how does the Kd [1] read?
Answer: The Kd was 3.3 nM.

B2: NU172 QCM exp. (structured_DNA)
DNA: B1 DNA
modifications: 5' amino C6
Question: Does B2 bind (human alpha-thrombin [2])?
Answer: Result: binds

B3: RE31 single molecule exp. (structured_DNA)
DNA: TTTTTTTGTGACGTAGGTTGGTGTGGTTGGGGCGTCAC
Question: For B3, which Kd [3] is on record?
Answer: Its Kd is 2.9 nM.

B4: RE31 QCM exp. (structured_DNA)
DNA: B3 DNA
modifications: 5' amino C6
Question: Does B4 bind (human alpha-thrombin [4])?
Answer: Result: binds

B5: HD1 single molecule exp. (structured_DNA)
DNA: TTTTTTTGGTTGGTGTGGTTGG
Question: B5 was tested. Which Kd [5] did it give?
Answer: Its Kd is 9.2 nM.
